Legend:
[1] = target: Diglycosylated IgG1-Fc (high mannose glycans at both CH2 domains of the dimer) (human); assay: BLI
[2] = target: Monoglycosylated IgG1-Fc (high mannose glycan at a single CH2 domain of the dimer) (human); assay: BLI

Kd [1]: 32 nM
Kd [2]: 100 nM
Substance: Fc γ receptor IIIA, soluble domain of the high affinity V158 polymorph
